Data on 2 substances can be found in paper doi:10.1101/2021.08.16.456439.

Experiment [1] concerns the target CyPet-Ubc9 (UniProt P63279). Put plainly: FRET or BRET. (In general: Bioluminescence resonance energy transfer reports proximity on the nanometre scale.)
Experiment [2] concerns the target CyPet-NS1 (influenza virus) (UniProt P03496). Put plainly: FRET or BRET.

Sequence of UniProt P63279 (P63279 whole entry): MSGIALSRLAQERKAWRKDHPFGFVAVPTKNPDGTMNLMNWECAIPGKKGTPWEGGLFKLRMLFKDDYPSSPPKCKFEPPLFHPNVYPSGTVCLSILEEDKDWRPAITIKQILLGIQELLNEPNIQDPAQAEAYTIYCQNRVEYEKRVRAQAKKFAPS

Usually Kd stands for the equilibrium constant for the complex coming apart. Read a low Kd as higher affinity. On to “YPet-NS1 (from UniProt P03496 1-230) (natural protein)”, for which the dissociation constant (Kd) in experiment [1] stood at 4.84 µM.

Consider “YPet-PIAS1 (from UniProt O75925 1-651) (enzyme)”, for which the Kd in experiment [2] is 2960 nM.
